Target: CLASPIN (UniProt Q9HAW4)
Experiment: anti-myc co-immunoprecipitation
Conditions: reference: wild-type RAD9-mH; sites T313

RAD9 (from UniProt Q99638) RAD9-T313A-mH
binding against the reference: stronger

Reference: PMC5736350
